The target in this assay is T1, FcγRIIb extracellular domain with C-terminal His tag (human, UniProt P31994 43-217).
T1 construct: extracellular domain; expressed in FreeStyle293 cells; analyte in the Biacore assay; also called FcgRIIb; 2b; not shown: His tag at the C terminus
T1 sequence (looked up): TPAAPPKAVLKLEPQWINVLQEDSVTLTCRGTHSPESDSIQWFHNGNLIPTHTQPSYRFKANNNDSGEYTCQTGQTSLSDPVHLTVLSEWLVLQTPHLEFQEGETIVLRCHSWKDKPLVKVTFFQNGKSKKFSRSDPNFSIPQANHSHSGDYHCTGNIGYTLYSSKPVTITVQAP
The assay is described as follows: SPR (Biacore), captured antibody, FcγRIIb analyte; binding relative to GpH7-A5/GpH7-B3/GpL16-k0 = 100. (SPR reads the build-up and loss of mass on a sensor chip optically.)

B1: GpH7-A5/GpH7-B3 variant I336_08L/GpL16-k0 (antibody, human IgG1, kappa)
heavy 1: not shown
heavy 2: not shown
light: DIVMTQSPLSLPVTPGEPASISCQASESLVHSNRNTYLHWYLQKPGQSPQLLIYKVSNRFSGVPDRFSGSGSGTDFTLKISRVEAEDVGVYYCSQNTHVPPTFGQGTKVEIERTVAAPSVFIFPPSDEQLKSGTASVVCLLNNFYPREAKVQWKVDNALQSGNSQESVTEQDSKDSTYSLSSTLTLSKADYEKHKVYACEVTHQGLSSPVTKSFNRGEC
notes: heterodimerized; mutation in the B3 H chain only; also called He Ab I336_08L
For the molecule B1, the He/Con_2b was 107 % of control.

B2: GpH7-A5/GpH7-B3 variant K334_14T/GpL16-k0 (antibody, human IgG1, kappa)
heavy 1: not shown
heavy 2: not shown
light: DIVMTQSPLSLPVTPGEPASISCQASESLVHSNRNTYLHWYLQKPGQSPQLLIYKVSNRFSGVPDRFSGSGSGTDFTLKISRVEAEDVGVYYCSQNTHVPPTFGQGTKVEIERTVAAPSVFIFPPSDEQLKSGTASVVCLLNNFYPREAKVQWKVDNALQSGNSQESVTEQDSKDSTYSLSSTLTLSKADYEKHKVYACEVTHQGLSSPVTKSFNRGEC
notes: heterodimerized; mutation in the B3 H chain only; also called He Ab K334_14T
Regarding B2, the He/Con_2b was 115 % of control.

B3: GpH7-A5/GpH7-B3 variant K334_03V/GpL16-k0 (antibody, human IgG1, kappa)
heavy 1: not shown
heavy 2: not shown
light: DIVMTQSPLSLPVTPGEPASISCQASESLVHSNRNTYLHWYLQKPGQSPQLLIYKVSNRFSGVPDRFSGSGSGTDFTLKISRVEAEDVGVYYCSQNTHVPPTFGQGTKVEIERTVAAPSVFIFPPSDEQLKSGTASVVCLLNNFYPREAKVQWKVDNALQSGNSQESVTEQDSKDSTYSLSSTLTLSKADYEKHKVYACEVTHQGLSSPVTKSFNRGEC
notes: heterodimerized; mutation in the B3 H chain only; also called He Ab K334_03V
Regarding B3, the He/Con_2b is 125 % of control.

B4: GpH7-A5/GpH7-B3 variant K334_08L/GpL16-k0 (antibody, human IgG1, kappa)
heavy 1: not shown
heavy 2: not shown
light: DIVMTQSPLSLPVTPGEPASISCQASESLVHSNRNTYLHWYLQKPGQSPQLLIYKVSNRFSGVPDRFSGSGSGTDFTLKISRVEAEDVGVYYCSQNTHVPPTFGQGTKVEIERTVAAPSVFIFPPSDEQLKSGTASVVCLLNNFYPREAKVQWKVDNALQSGNSQESVTEQDSKDSTYSLSSTLTLSKADYEKHKVYACEVTHQGLSSPVTKSFNRGEC
notes: heterodimerized; mutation in the B3 H chain only; also called He Ab K334_08L
For the molecule B4, the He/Con_2b was 106 % of control.

B5: GpH7-A5/GpH7-B3 variant K326_03V/GpL16-k0 (antibody, human IgG1, kappa)
heavy 1: not shown
heavy 2: not shown
light: DIVMTQSPLSLPVTPGEPASISCQASESLVHSNRNTYLHWYLQKPGQSPQLLIYKVSNRFSGVPDRFSGSGSGTDFTLKISRVEAEDVGVYYCSQNTHVPPTFGQGTKVEIERTVAAPSVFIFPPSDEQLKSGTASVVCLLNNFYPREAKVQWKVDNALQSGNSQESVTEQDSKDSTYSLSSTLTLSKADYEKHKVYACEVTHQGLSSPVTKSFNRGEC
notes: heterodimerized; mutation in the B3 H chain only; also called He Ab K326_03V
As for B5, the He/Con_2b is 175 % of control.

B6: GpH7-A5/GpH7-B3 variant K326_14T/GpL16-k0 (antibody, human IgG1, kappa)
heavy 1: not shown
heavy 2: not shown
light: DIVMTQSPLSLPVTPGEPASISCQASESLVHSNRNTYLHWYLQKPGQSPQLLIYKVSNRFSGVPDRFSGSGSGTDFTLKISRVEAEDVGVYYCSQNTHVPPTFGQGTKVEIERTVAAPSVFIFPPSDEQLKSGTASVVCLLNNFYPREAKVQWKVDNALQSGNSQESVTEQDSKDSTYSLSSTLTLSKADYEKHKVYACEVTHQGLSSPVTKSFNRGEC
notes: heterodimerized; mutation in the B3 H chain only; also called He Ab K326_14T
On to B6, for which the He/Con_2b is 150 % of control.

B7: GpH7-A5/GpH7-B3 variant K326_10E/GpL16-k0 (antibody, human IgG1, kappa)
heavy 1: not shown
heavy 2: not shown
light: DIVMTQSPLSLPVTPGEPASISCQASESLVHSNRNTYLHWYLQKPGQSPQLLIYKVSNRFSGVPDRFSGSGSGTDFTLKISRVEAEDVGVYYCSQNTHVPPTFGQGTKVEIERTVAAPSVFIFPPSDEQLKSGTASVVCLLNNFYPREAKVQWKVDNALQSGNSQESVTEQDSKDSTYSLSSTLTLSKADYEKHKVYACEVTHQGLSSPVTKSFNRGEC
notes: heterodimerized; mutation in the B3 H chain only; also called He Ab K326_10E
As to B7, the He/Con_2b is 200 % of control.

B8: GpH7-A5/GpH7-B3 variant K326_16H/GpL16-k0 (antibody, human IgG1, kappa)
heavy 1: not shown
heavy 2: not shown
light: DIVMTQSPLSLPVTPGEPASISCQASESLVHSNRNTYLHWYLQKPGQSPQLLIYKVSNRFSGVPDRFSGSGSGTDFTLKISRVEAEDVGVYYCSQNTHVPPTFGQGTKVEIERTVAAPSVFIFPPSDEQLKSGTASVVCLLNNFYPREAKVQWKVDNALQSGNSQESVTEQDSKDSTYSLSSTLTLSKADYEKHKVYACEVTHQGLSSPVTKSFNRGEC
notes: heterodimerized; mutation in the B3 H chain only; also called He Ab K326_16H
In the case of B8, the He/Con_2b is 119 % of control.

B9: GpH7-A5/GpH7-B3 variant K326_15Y/GpL16-k0 (antibody, human IgG1, kappa)
heavy 1: not shown
heavy 2: not shown
light: DIVMTQSPLSLPVTPGEPASISCQASESLVHSNRNTYLHWYLQKPGQSPQLLIYKVSNRFSGVPDRFSGSGSGTDFTLKISRVEAEDVGVYYCSQNTHVPPTFGQGTKVEIERTVAAPSVFIFPPSDEQLKSGTASVVCLLNNFYPREAKVQWKVDNALQSGNSQESVTEQDSKDSTYSLSSTLTLSKADYEKHKVYACEVTHQGLSSPVTKSFNRGEC
notes: heterodimerized; mutation in the B3 H chain only; also called He Ab K326_15Y
Regarding B9, the He/Con_2b was 159 % of control.

B10: GpH7-A5/GpH7-B3 variant K334_10E/GpL16-k0 (antibody, human IgG1, kappa)
heavy 1: not shown
heavy 2: not shown
light: DIVMTQSPLSLPVTPGEPASISCQASESLVHSNRNTYLHWYLQKPGQSPQLLIYKVSNRFSGVPDRFSGSGSGTDFTLKISRVEAEDVGVYYCSQNTHVPPTFGQGTKVEIERTVAAPSVFIFPPSDEQLKSGTASVVCLLNNFYPREAKVQWKVDNALQSGNSQESVTEQDSKDSTYSLSSTLTLSKADYEKHKVYACEVTHQGLSSPVTKSFNRGEC
notes: heterodimerized; mutation in the B3 H chain only; also called He Ab K334_10E
Take B10: the He/Con_2b is 114 % of control.

Values taken from patent US20180155451A1 (published 2018).
